Reference: patent US20010016351

System: GFP-CBP fusion protein (green fluorescent protein with C-terminal thrombin-cleavable calmodulin binding peptide tag, expressed from GFP Clone No. 2995-87.6 in BL21(DE3) cells) [GFP: P42212]

thrombin was tested, and the “cleavage of the fusion protein by thrombin at 6 h” value was “Fifty percent cleavage was observed at 6 h” and the “cleavage of the fusion protein by thrombin at 24 h” value was 95 percent cleavage was achieved at 24 h.
